Results published in patent publication US20070249808A1 (priority 2000, published 2007).

System: CD3+ Vβ+ T cells of peripheral blood lymphocytes (PBL)
Experiment: T-cell enrichment assay with HtTA 4 cells transfected with bicistronic constructs
Type: cell-based, human
Settings: PBL from a healthy donor; 9 days of specific stimulation; FIG. 18

B1: pCDL-HERV WΔ120 aa: N-terminal 120 amino acid fragment of HERV-W ENV (amino acids 1 to 120, including signal peptide), expressed from a bicistronic cassette (protein)
chain: APPPCRCMTSSSPYQEFLWRMQRPGNIDAPSYRSLSKGTPTFTAHTHMPRNCYHSATLCMHANTHYWTGKMINPSCPGGLGVTVCWTYFTQTGMSDGGGV
expansion of Vβ17+ T-cells: no expansion
